Target: SARS-COV-2 Wuhan WT Spike_del18 on VSV-delG pseudotyped particles (SARS-COV-2) (UniProt P0DTC2)
Assay: cell-based or functional assay

Substance | IC50 ug/ml, pseudoneutralization assay
pX-B001_GS-VHH72-h1-E1D-S56A_(G4S)6_VHH72-h1-E1D-S56A_His8 | 0.169 µg/mL
pX-B002_GS-VHH72-h1-E1D-S56A_(G4S)_VHH72-h1-E1D-S56A_His8 | 0.108 µg/mL
pX-B003_GS-VHH72-h1-E1D-S56A_(G4S)4_VHH72-h1-E1D-S56A_His8 | 0.361 µg/mL

From patent publication US20240228596A1
